Laboratory results from PMC4456160 (Nature structural & molecular biology, 2015).
Positions count from the first letter of the chain named. Numbers in names are those of the source. Where two headings read alike, the source gives them in different places. One block for each molecule: values may come before it.

T1: full length ectodomain of human RGMC (eRGMC) (human, UniProt Q6ZVN8 36-400)
T1 sequence: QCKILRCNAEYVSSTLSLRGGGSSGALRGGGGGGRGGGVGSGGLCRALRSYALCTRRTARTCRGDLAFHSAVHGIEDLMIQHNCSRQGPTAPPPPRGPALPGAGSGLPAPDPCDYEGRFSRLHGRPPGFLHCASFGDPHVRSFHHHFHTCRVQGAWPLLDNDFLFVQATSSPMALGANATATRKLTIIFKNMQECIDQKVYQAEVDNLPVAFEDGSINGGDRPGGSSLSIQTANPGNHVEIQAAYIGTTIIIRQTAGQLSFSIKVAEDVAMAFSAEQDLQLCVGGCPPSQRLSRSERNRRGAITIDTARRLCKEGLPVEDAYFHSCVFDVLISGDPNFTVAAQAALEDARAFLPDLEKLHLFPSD

B1: human BMP2 (Bone Morphogenetic Protein 2), disulfide-linked dimer (ligand)
chain: QAKHKQRKRLKSSCKRHPLYVDFSDVGWNDWIVAPPGYHAFYCHGECPFPLADHLNSTNHAIVQTLVNSVNSKIPKACCVPTELSAISMLYLDENEKVVLKNYQDMVVEGCGCR
B2: N-terminal domain of human RGMB (RGMBND) (domain or fragment)
chain: QCRIQKCTTDFVSLTSHLNSAVDGFDSEFCKALRAYAGCTQRTSKACRGNLVYHSAVLGISDLMSQRNCSKDGPTSSTNPEVTH
B3: mouse NEO1 FN5-FN6 with juxtamembrane stretch (NEO1FN56M) (domain or fragment)
chain: TPMMPPVGVQASILSHDTIRITWADNSLPKHQKITDSRYYTVRWKTNIPANTKYKNANATTLSYLVTGLKPNTLYEFSVMVTKGRRSSTWSMTAHGATFELVPTSPPKDVTVVSKEGKPRTIIVNWQPPSEANGKITGYIIYYSTDVNAEIHDWVIEPVVGNRLTHQIQELTLDTPYYFKIQARNSKGMGPMSEAVQFRTPKADSSDKMPNDQALGSAGKGSRLPDLGSDYKPPMSGSNSPHGSPTSPLDSN
B4: N-terminal domain of human RGMC (RGMCND) (domain or fragment)
chain: QCKILRCNAEYVSSTLSLRGGGSSGALRGGGGGGRGGGVGSGGLCRALRSYALCTRRTARTCRGDLAFHSAVHGIEDLMIQHNCSRQGPTAPPPPRGPALPGAGSGLPAPDP
B5: RGMCND-L101P (domain or fragment)
chain: B4 chain with L66P
B6: RGMCND-G99R (domain or fragment)
chain: B4 chain with G64R
B7: mouse NEO1 fifth and sixth fibronectin type III domains (NEO1FN56) (domain or fragment)
chain: TPMMPPVGVQASILSHDTIRITWADNSLPKHQKITDSRYYTVRWKTNIPANTKYKNANATTLSYLVTGLKPNTLYEFSVMVTKGRRSSTWSMTAHGATFELVPTSPPKDVTVVSKEGKPRTIIVNWQPPSEANGKITGYIIYYSTDVNAEIHDWVIEPVVGNRLTHQIQELTLDTPYYFKIQARNSKGMGPMSEAVQFRTP
B8: N-terminal domain of human RGMA (RGMAND) (domain or fragment)
chain: TSPCKILKCNSEFWSATSGSHAPASDDTPEFCAALRSYALCTRRTARTCRGDLAYHSAVHGIEDLMSQHNCSKDGPTSQPRLRTLPPAGDSQERS
B9: full length ectodomain of human RGMB (eRGMB) (domain or fragment)
chain: QCRIQKCTTDFVSLTSHLNSAVDGFDSEFCKALRAYAGCTQRTSKACRGNLVYHSAVLGISDLMSQRNCSKDGPTSSTNPEVTHDPCNYHSHAGAREHRRGDQNPPSYLFCGLFGDPHLRTFKDNFQTCKVEGAWPLIDNNYLSVQVTNVPVVPGSSATATNKITIIFKAHHECTDQKVYQAVTDDLPAAFVDGTTSGGDSDAKSLRIVERESGHYVEMHARYIGTTVFVRQVGRYLTLAIRMPEDLAMSYEESQDLQLCVNGCPLSERIDDGQGQVSAILGHSLPRTSLVQAWPGYTLETANTQCHEKMPVKDIYFQSCVFDLLTTGDANFTAAAHSALEDVEALHPRKERWHIFPSSG
B10: secreted ectodomain of human BMPR1A (eBMPR1A) (receptor)
chain: TLAPEDTLPFLKCYCSGHCPDDAINNTCITNGHCFAIIEEDDQGETTLASGCMKYEGSDFQCKDSPKAQLRRTIECCRTNLCNQYLQPTLPPV

Experiments:
[1] = biological target: human BMP2 (Bone Morphogenetic Protein 2), disulfide-linked dimer (human) (UniProt P12643); experiment: SPR
[2] = biological target: the molecule itself; experiment: crystal structure
[3] = biological target: T1, full length ectodomain of human RGMC …; experiment: SPR
[4] = biological target: B9; experiment: SPR
[5] = biological target: B1; experiment: SPR
[6] = biological target: B1; experiment: SEC-MALS
[7] = biological target: B9; experiment: SAXS
[8] = biological target: B1; experiment: crystal structure
[9] = biological target: B9; experiment: crystal structure
[10] = biological target: B1; experiment: crystal structure; remark: listed apart in the source
[11] = biological target: B1; experiment: SAXS
[12] = biological target: B1; experiment: SPR; remark: listed apart in the source

Kd [1]: 280 nM
Molecule: RGMC H104A mutant (from UniProt Q6ZVN8 36-147) (domain or fragment)

Molecule: B1
stoichiometry N [2]: 2
binding result [3]: binds
binding result [4]: binds

Molecule: B2
Kd [5]: 88 nM
stoichiometry N [6]: 2 RGMBND per disulfide-linked BMP2 dimer (printed 2:2)

Molecule: B3
stoichiometry N [7]: 1 NEO1 per eRGMB (printed 2:2:2)

Molecule: B4
stoichiometry N [8]: 2 RGMC per BMP2 dimer
Kd [5]: 124 nM

Molecule: B5
Kd [5]: 1500 nM

Molecule: B6
Kd [5]: 910 nM

Molecule: B7
binding result [9]: binds

Molecule: B8
binding result [8]: binds

Molecule: B9
stoichiometry N [10]: 2 RGMB per BMP2 dimer
stoichiometry N [11]: 2 eRGMB per BMP2 dimer (printed 2:2:2)

Molecule: B10
Kd [12]: 280 nM
stoichiometry N [6]: 2 eBMPR1A per disulfide-linked BMP2 dimer (printed 2:2)
